Usually IC50 stands for the concentration that gives 50% inhibition.

Data set [1] deals with COc1cc(/C=N/Nc2nnc3n2N=C(c2ccccc2)CS3)cc(OC)c1O. Description: Mixed-type inhibition of Saccharomyces cerevisiae alpha-glucosidase using nitrophenol-alpha-D-glucopyranoside (pNPG) as substrate assessed as Vmax at 24 to 48 uM measured after 15 mins by Lineweaver-Burk plot analysis. The data set is classed as protein assay. The following applies: dose 24-48 µM.
For a further data set, the target named is Alpha-glucosidase (Saccharomyces cerevisiae S288c, UniProt P53341+P38158+P07265). Description: Inhibition of Saccharomyces cerevisiae alpha-glucosidase using nitrophenol-alpha-D-glucopyranoside (pNPG) as substrate incubated for 15 mins. The data set is classed as protein assay.

Sequence of Alpha-glucosidase (Saccharomyces cerevisiae S288c) (P07265 whole entry, looked up): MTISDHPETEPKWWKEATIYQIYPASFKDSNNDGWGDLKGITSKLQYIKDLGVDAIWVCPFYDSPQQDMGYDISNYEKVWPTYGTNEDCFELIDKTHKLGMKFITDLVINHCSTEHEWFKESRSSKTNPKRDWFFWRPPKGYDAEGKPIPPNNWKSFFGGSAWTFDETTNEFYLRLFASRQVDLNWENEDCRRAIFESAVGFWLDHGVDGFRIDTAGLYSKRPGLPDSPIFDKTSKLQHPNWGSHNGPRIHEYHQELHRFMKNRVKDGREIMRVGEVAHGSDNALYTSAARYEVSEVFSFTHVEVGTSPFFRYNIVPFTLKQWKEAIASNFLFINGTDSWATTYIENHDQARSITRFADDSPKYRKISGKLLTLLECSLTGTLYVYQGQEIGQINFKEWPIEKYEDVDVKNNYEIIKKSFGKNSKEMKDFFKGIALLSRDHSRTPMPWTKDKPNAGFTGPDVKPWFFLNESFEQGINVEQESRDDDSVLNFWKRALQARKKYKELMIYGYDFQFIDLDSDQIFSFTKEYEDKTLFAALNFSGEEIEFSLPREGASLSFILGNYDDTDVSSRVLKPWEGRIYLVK
Sequence of Alpha-glucosidase (Saccharomyces cerevisiae S288c) (P38158 whole entry, looked up): as the sequence (P07265 whole entry, looked up) above, with R273T, V305L counted along it
Sequence of Alpha-glucosidase (Saccharomyces cerevisiae S288c) (P53341 whole entry, looked up): as the sequence (P07265 whole entry, looked up) above, with R273T, F467L counted along it

In the case of “Alpha-glucosidase (Saccharomyces cerevisiae S288c) (from UniProt P53341+P38158+P07265)”, in data set [1], the Vmax turned out to be 0.07 µM/L.min. At Alpha-glucosidase, `Oc1cccc(/C=N/Nc2nnc3n2N=C(c2ccccc2)CS3)c1` had an IC50 of 135.7 µM.
